Experimental data published in patent US20020155571A1, “Triazine degrading enzymes” (priority 2000, published 2002).

Key:
Assay type in all cases: biochemical
[1] = Product formation by washed and induced cells expressing triazine hydrolase, substrate N-methylpropazine; details: 250 μM substrate, 20 ul washed and induced cells OD600 = 3 in 100 μl 10 mM NH3Acetate pH 6.8, 37° C.
[2] = Product formation by washed and induced cells expressing triazine hydrolase, substrate atratone; details: 250 μM substrate, 20 ul washed and induced cells in 100 μl NH3Acetate pH 6.8, 22° C.
[3] = Product formation by washed and induced cells expressing triazine hydrolase, substrate aminoatrazine; details: 250 μM substrate, 20 ul washed and induced cells in 100 μl NH3Acetate pH 6.8, 22° C.
[4] = Product formation by washed and induced cells expressing triazine hydrolase, substrate aminopropazine; details: 250 μM substrate, 20 ul washed and induced cells OD600 = 3 in 100 μl 10 mM NH3Acetate pH 6.8, 37° C.
[5] = Product formation by washed and induced cells expressing triazine hydrolase, substrate N-methylatrazine; details: 250 μM substrate, 20 ul washed and induced cells in 100 μl NH3Acetate pH 6.8, 22° C.
[6] = Product formation by washed and induced cells expressing triazine hydrolase, substrate ametryn; details: 250 μM substrate, 20 ul washed and induced cells in 100 μl NH3Acetate pH 6.8, 22° C.
[7] = Product formation by washed and induced cells expressing triazine hydrolase, substrate atrazine; details: 250 μM substrate, 20 ul washed and induced cells in 100 μl NH3Acetate pH 6.8, 22° C.
[8] = Product formation by washed and induced cells expressing triazine hydrolase, substrate prometryn; details: 250 μM substrate, 20 ul washed and induced cells OD600 = 3 in 100 μl 10 mM NH3Acetate pH 6.8, 37° C.
[9] = Product formation by washed and induced cells expressing triazine hydrolase, substrate propazine; details: 250 μM substrate, 20 ul washed and induced cells OD600 = 3 in 100 μl 10 mM NH3Acetate pH 6.8, 37° C.
[10] = Product formation by washed and induced cells expressing triazine hydrolase, substrate prometon; details: 250 μM substrate, 20 ul washed and induced cells OD600 = 3 in 100 μl 10 mM NH3Acetate pH 6.8, 37° C.

B1: atzA: naturally occurring atrazine chlorohydrolase (atzA), GenBank #U55933 (protein, UniProt P72156 1-474, looked up)
Atrazine chlorohydrolase: MQTLSIQHGTLVTMDQYRRVLGDSWVHVQDGRIVALGVHAESVPPPADRVIDARGKVVLPGFINAHTHVNQILLRGGPSHGRQFYDWLFNVVYPGQKAMRPEDVAVAVRLYCAEAVRSGITTINENADSAIYPGNIEAAMAVYGEVGVRVVYARMFFDRMDGRIQGYVDALKARSPQVELCSIMEETAVAKDRITALSDQYHGTAGGRISVWPAPATTTAVTVEGMRWAQAFARDRAVMWTLHMAESDHDERIHGMSPAEYMECYGLLDERLQVAHCVYFDRKDVRLLHRHNVKVASQVVSNAYLGSGVAPVPEMVERGMAVGIGTDNGNSNDSVNMIGDMKFMAHIHRAVHRDADVLTPEKILEMATIDGARSLGMDHEIGSIETGKRADLILLDLRHPQTTPHHHLAATIVFQAYGNEVDTVLIDGNVVMENRRLSFLPPERELAFLEEAQSRATAILQRANMVANPAWRSL
- Product formation, substrate NMePropazine [1]: 0 nM/h
- Product formation, substrate Atratone [2]: 0 nM/h
- Product formation, substrate Aminoatrazine [3]: 0 nM/h
- Product formation, substrate Aminopropazine [4]: 0 nM/h
- Product formation, substrate NMeAtrazine [5]: 0 nM/h
- Product formation, substrate Ametryn [6]: 0 nM/h
- Product formation, substrate Atrazine [7]: 58899 nM/h
- Product formation, substrate Prometryn [8]: 0 nM/h
- Product formation, substrate Propazine [9]: 26 nM/h
- Product formation, substrate Prometon [10]: 0 nM/h
